Target: T1, His-tagged Arc, wild type, purified, Q9WV31
T1 chain: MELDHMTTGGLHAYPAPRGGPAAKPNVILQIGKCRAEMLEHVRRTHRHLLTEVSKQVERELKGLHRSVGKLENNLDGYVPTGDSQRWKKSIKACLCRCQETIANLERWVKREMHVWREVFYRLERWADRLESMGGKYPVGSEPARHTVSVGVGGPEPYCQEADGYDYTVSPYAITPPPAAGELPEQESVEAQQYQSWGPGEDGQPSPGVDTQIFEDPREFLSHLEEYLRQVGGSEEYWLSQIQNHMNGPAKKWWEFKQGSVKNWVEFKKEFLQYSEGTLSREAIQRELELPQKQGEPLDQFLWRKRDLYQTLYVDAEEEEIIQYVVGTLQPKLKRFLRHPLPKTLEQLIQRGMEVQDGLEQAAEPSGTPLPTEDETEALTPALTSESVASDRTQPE
Test: SDS-PAGE under non-reducing conditions; purified His-Arc in SDS sample buffer without 2-mercaptoethanol, heated 5 min at 95°C; total protein stain and anti-Arc immunoblot
Conditions: remark: other sources report otherwise

stoichiometry N: 2
B1: His-tagged Arc, wild type, purified, Q9WV31 1-396 (natural protein)
chain: MELDHMTTGGLHAYPAPRGGPAAKPNVILQIGKCRAEMLEHVRRTHRHLLTEVSKQVERELKGLHRSVGKLENNLDGYVPTGDSQRWKKSIKACLCRCQETIANLERWVKREMHVWREVFYRLERWADRLESMGGKYPVGSEPARHTVSVGVGGPEPYCQEADGYDYTVSPYAITPPPAAGELPEQESVEAQQYQSWGPGEDGQPSPGVDTQIFEDPREFLSHLEEYLRQVGGSEEYWLSQIQNHMNGPAKKWWEFKQGSVKNWVEFKKEFLQYSEGTLSREAIQRELELPQKQGEPLDQFLWRKRDLYQTLYVDAEEEEIIQYVVGTLQPKLKRFLRHPLPKTLEQLIQRGMEVQDGLEQAAEPSGTPLPTEDETEALTPALTSESVASDRTQPE

From publication PMC10043188
